Source: article doi:10.1101/2024.04.19.590371 (bioRxiv, 2024)

T1: His+SUMO-atDjA2 (Arabidopsis thaliana, UniProt P42825 1-419)
T1 sequence (looked up): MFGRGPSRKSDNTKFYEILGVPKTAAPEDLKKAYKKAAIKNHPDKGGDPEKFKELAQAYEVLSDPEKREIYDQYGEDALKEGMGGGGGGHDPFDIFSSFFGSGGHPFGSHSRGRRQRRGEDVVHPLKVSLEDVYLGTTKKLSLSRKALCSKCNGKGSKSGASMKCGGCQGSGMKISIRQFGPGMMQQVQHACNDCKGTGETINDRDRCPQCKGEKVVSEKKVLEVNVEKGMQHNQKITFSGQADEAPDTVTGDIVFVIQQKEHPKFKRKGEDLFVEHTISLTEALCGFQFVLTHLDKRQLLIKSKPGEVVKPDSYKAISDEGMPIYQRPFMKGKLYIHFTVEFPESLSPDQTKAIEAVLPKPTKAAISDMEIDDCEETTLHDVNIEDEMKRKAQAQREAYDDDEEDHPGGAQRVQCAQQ

T2: His+SUMO-atDjA1 (Arabidopsis thaliana, UniProt Q94AW8 1-420)
T2 sequence (looked up): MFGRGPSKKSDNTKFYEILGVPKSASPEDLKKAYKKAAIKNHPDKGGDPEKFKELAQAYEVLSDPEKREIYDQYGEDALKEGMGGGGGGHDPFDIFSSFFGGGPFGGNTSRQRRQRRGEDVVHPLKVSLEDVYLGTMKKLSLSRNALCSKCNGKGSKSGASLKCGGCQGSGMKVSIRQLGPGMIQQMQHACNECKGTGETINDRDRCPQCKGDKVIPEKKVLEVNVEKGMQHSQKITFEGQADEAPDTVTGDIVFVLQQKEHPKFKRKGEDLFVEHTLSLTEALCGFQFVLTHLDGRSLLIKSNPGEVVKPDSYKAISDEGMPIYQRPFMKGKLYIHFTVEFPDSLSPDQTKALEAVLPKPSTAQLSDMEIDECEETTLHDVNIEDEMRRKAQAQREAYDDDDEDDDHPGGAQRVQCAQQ

B1: GST-OM64 (cytosolic domain, aa 488-586) (domain or fragment, Arabidopsis thaliana, UniProt F4KCL7 488-586, looked up)
chain: SEVMKEKGNAAYKGKQWNKAVNFYTEAIKLNGANATYYCNRAAAFLELCCFQQAEQDCTKAMLIDKKNVKAYLRRGTARESLVRYKEAAADFRHALVLE
B2: GST-Metaxin (cytosolic domain, aa 1-191) (domain or fragment, Arabidopsis thaliana, UniProt O64471 1-191, looked up)
chain: MEGDQETNVYTLVARKPSFDLPTACPNCLPAYIYLKLAQLPFELAFNSTFPDSDELPYFESDTYVAYNNEDGGVIEKLKKDGIVNLDSQLQSLSDYLSLKALIVSWLEEALTYEIWVGTEGISTSKIYYSDLPWVISKVLFYKQTYLAKNRLGITKENAEQREKQIYKRASEAYEALSTRLGEQKFLFEDR
B3: GST-Tom9.2 (cytosolic domain, aa 1-53) (domain or fragment, Arabidopsis thaliana, UniProt Q9FNC9 1-53, looked up)
chain: MAAKRIGAGKSGGGDPNILARISNSEIVSQGRRAAGDAVEVSKKLLRSTGKAA

Columns and labels:
His+SUMO-atDjA2 = biological target: T1, His+SUMO-atDjA2; assay: pull-down
His+SUMO-atDjA1 = biological target: T2, His+SUMO-atDjA1; assay: pull-down

Binder | binding result (His+SUMO-atDjA2) | binding result (His+SUMO-atDjA1)
B1 | binds | 
B2 | binds | binds
B3 |  | binds
